Source: patent US20150259422A1 (UNIVERSITY OF NORTH CAROLINA AT CHAPEL HILL, published 2015)

What was measured:
[1] = target: T1, alphaVbeta3 integrin, native human, on rhabdomyosarcoma (RD) cells and on human umbilical vein endothelial … (human, UniProt P06756 31-1048; P05106 27-788); assay: flow cytometry on RD cells expressing alphaVbeta3, PE anti-human IgG; EC50 = concentration where 50% of cells gated in R2
T1 construct: whole, on cells; also called αVβ3; native human β3
Experimental: (§1) The binding of NS0-derived HLMC Composite Human Antibody™ variants to rhabdomyosarcoma (RD) cells expressing alphaVbeta3 integrin was assessed in a flow cytometry binding assay. Briefly, a subconfluent monolayer of RD cells was prepared and incubated in serum free medium for 24 hours prior to harvest. […] Cells were resuspended into a suitable volume of cold FACS buffer (1% FBS/0.01% sodium azide/PBS) to yield a final cell density of 4×10⁶ cells/ml.
(§2) The plates were incubated at 4° C. for 1 hour. Cells were washed with FACS buffer, resuspended in 100 μl of secondary antibody (Sigma Cat. No. P8047, goat anti-human IgG (γ chain specific; PE conjugated) and incubated for 1 hour at 4° C. Cells were washed twice, resuspended in a final volume of 175 μl FACS buffer and transferred to FACS tubes. Fluorescence was measured by flow cytometry and data plotted as normalized % positive events (gated in R2).

[2] = target: T1, alphaVbeta3 integrin, native human, on …; assay: flow cytometry on RD cells expressing alphaVbeta3; reference chimeric HLMC
Experimental: as §1, §2

T1 sequence (P06756 31-1048, chain 1 of 2): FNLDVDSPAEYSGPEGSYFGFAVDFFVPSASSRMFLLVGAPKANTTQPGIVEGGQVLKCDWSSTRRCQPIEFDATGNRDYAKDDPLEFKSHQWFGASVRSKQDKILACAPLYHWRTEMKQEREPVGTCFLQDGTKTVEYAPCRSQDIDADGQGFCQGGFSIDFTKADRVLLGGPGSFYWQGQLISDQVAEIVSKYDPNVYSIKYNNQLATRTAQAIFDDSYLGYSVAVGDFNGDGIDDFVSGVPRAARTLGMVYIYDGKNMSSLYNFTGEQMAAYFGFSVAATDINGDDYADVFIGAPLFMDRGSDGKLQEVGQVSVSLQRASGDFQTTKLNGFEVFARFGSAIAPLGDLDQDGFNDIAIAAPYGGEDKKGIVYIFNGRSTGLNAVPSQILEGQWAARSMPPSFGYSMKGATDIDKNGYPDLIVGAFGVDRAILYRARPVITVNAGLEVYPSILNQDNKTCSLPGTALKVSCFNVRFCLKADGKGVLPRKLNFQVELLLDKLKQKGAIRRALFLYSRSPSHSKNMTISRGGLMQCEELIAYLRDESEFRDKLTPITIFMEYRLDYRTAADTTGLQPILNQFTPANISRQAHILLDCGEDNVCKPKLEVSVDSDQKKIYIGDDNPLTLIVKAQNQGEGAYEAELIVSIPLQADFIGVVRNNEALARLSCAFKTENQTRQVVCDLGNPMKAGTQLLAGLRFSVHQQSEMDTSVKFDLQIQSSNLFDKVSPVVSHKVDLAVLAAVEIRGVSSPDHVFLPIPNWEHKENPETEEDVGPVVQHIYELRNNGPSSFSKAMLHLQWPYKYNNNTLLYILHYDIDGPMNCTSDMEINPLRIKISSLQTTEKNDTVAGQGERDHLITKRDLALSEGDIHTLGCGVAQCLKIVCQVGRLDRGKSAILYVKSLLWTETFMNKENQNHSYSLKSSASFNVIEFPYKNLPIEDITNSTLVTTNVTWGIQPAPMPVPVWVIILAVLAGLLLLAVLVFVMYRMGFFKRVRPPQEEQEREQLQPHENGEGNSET
T1 sequence (P05106 27-788, chain 2 of 2): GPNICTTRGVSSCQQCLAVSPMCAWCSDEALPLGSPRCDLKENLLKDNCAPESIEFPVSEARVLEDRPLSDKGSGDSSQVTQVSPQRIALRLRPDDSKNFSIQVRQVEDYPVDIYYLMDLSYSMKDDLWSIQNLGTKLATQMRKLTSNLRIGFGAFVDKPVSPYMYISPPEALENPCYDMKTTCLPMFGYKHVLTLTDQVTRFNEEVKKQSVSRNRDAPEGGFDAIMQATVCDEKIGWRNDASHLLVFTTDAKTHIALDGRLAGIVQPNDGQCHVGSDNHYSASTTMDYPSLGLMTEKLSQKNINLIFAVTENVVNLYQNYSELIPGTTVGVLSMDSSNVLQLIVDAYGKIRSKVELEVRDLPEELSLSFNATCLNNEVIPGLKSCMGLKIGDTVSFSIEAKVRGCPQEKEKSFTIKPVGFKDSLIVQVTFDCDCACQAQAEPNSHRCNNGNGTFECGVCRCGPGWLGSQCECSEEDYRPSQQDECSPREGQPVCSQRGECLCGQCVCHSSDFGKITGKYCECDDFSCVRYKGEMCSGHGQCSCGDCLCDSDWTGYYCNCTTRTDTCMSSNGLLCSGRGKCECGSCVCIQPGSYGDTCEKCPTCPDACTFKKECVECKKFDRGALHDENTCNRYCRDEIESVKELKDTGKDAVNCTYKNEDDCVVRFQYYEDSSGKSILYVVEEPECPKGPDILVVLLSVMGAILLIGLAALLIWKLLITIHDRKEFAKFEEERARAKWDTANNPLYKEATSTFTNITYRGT

| Binder | EC50 [1] | relative binding score (EC50 of variant divided by EC50 of chimeric HLMC) [2] |
| --- | --- | --- |
| VH3/Vκ2 Composite Human Antibody variant of HLMC (antibody, human IgG1, kappa, V domains shown, also called VH3/Vk2) VH: QAQLVQSGAEVKKPGASVKVSCKASGYLFSNSWMNWVKQRRGAGLEWIGRIFPGDGDTNYNGKFKGRATITADKSTSTAYMELSSLRSEDTAVYFCARWGLTRDRRLYLDYWGQGTTVTVSS VL: DIVMTQSPDSLAVSLGERATINCKSSQSLLYSSNQKNYLAWYQQKPGQAPRLLIYWASTRESGVPDRFTGSGSGTDFTLTISSLQAEDVAVYYCKQYYTYPLTFGQGTKLEIKR | 47.4 nM | 13.2 ratio |
| VH5/Vκ1 Composite Human Antibody variant of HLMC (antibody, human IgG1, kappa, V domains shown, also called VH5/Vk1) VH: QAQLVQSGAEVKKPGASVKVSCKASGYLFSNSWMNWVKQRRGAGLEWIGRIFPGDGDTNYNGKFKGRVTITADKSTSTAYMELSSLRSEDTAVYYCARWGLTRDRRLYLDYWGQGTTVTVSS VL: DIVMTQSPDSLVVSLGERATINCKSSQSLLYSSNQKNYLAWYQQKSGQAPRLLIYWASTRESGVPDRFTGSGSGTDFTLTISSLQAEDVAVYYCKQYYTYPLTFGQGTKLEIKR | 4.42 nM | 1.23 ratio |
| VH1/Vκ2 Composite Human Antibody variant of HLMC (antibody, human IgG1, kappa, V domains shown, also called VH1/Vk2) VH: QAQLVQSGPELKKPGASVKVSCKASGYLFSNSWMNWVKQRPGAGLEWIGRIFPGDGDTNYNGKFKGRATITADKSTSTAYMELSSLRSEDSAVYFCARWGLTRDRRLYLDYWGQGTTVTVSS VL: DIVMTQSPDSLAVSLGERATINCKSSQSLLYSSNQKNYLAWYQQKPGQAPRLLIYWASTRESGVPDRFTGSGSGTDFTLTISSLQAEDVAVYYCKQYYTYPLTFGQGTKLEIKR | 5.43 nM | 1.52 ratio |
| VH4/Vκ3 Composite Human Antibody variant of HLMC (antibody, human IgG1, kappa, V domains shown, also called VH4/Vk3) VH: QAQLVQSGAEVKKPGASVKVSCKASGYLFSNSWMNWVKQRRGAGLEWIGRIFPGDGDTNYNGKFKGRVTITADKSTSTAYMELSSLRSEDTAVYFCARWGLTRDRRLYLDYWGQGTTVTVSS VL: DIVMTQSPDSLAVSLGERATINCKSSQSLLYSSNQKNYLAWYQQKPGQAPRLLIYWASTRESGVPDRFSGSGSGTDFTLTISSLQAEDVAVYYCKQYYTYPLTFGQGTKLEIKR | 2.03 nM | 0.57 ratio |
| VH3/Vκ1 Composite Human Antibody variant of HLMC (antibody, human IgG1, kappa, V domains shown, also called VH3/Vk1) VH: QAQLVQSGAEVKKPGASVKVSCKASGYLFSNSWMNWVKQRRGAGLEWIGRIFPGDGDTNYNGKFKGRATITADKSTSTAYMELSSLRSEDTAVYFCARWGLTRDRRLYLDYWGQGTTVTVSS VL: DIVMTQSPDSLVVSLGERATINCKSSQSLLYSSNQKNYLAWYQQKSGQAPRLLIYWASTRESGVPDRFTGSGSGTDFTLTISSLQAEDVAVYYCKQYYTYPLTFGQGTKLEIKR | 4.85 nM | 1.35 ratio |
| VH2/Vκ2 Composite Human Antibody variant of HLMC (antibody, human IgG1, kappa, V domains shown, also called VH2/Vk2) VH: QAQLVQSGPEVKKPGASVKVSCKASGYLFSNSWMNWVKQRPGAGLEWIGRIFPGDGDTNYNGKFKGRATITADKSTSTAYMELSSLRSEDTAVYFCARWGLTRDRRLYLDYWGQGTTVTVSS VL: DIVMTQSPDSLAVSLGERATINCKSSQSLLYSSNQKNYLAWYQQKPGQAPRLLIYWASTRESGVPDRFTGSGSGTDFTLTISSLQAEDVAVYYCKQYYTYPLTFGQGTKLEIKR | 4.92 nM | 1.37 ratio |
| VH5/Vκ3 Composite Human Antibody variant of HLMC (antibody, human IgG1, kappa, V domains shown, also called VH5/Vk3) VH: QAQLVQSGAEVKKPGASVKVSCKASGYLFSNSWMNWVKQRRGAGLEWIGRIFPGDGDTNYNGKFKGRVTITADKSTSTAYMELSSLRSEDTAVYYCARWGLTRDRRLYLDYWGQGTTVTVSS VL: DIVMTQSPDSLAVSLGERATINCKSSQSLLYSSNQKNYLAWYQQKPGQAPRLLIYWASTRESGVPDRFSGSGSGTDFTLTISSLQAEDVAVYYCKQYYTYPLTFGQGTKLEIKR | 3.15 nM | 0.88 ratio |
| VH4/Vκ1 Composite Human Antibody variant of HLMC (antibody, human IgG1, kappa, V domains shown, also called Vh4/Vk1; VH4/Vk1) VH: QAQLVQSGAEVKKPGASVKVSCKASGYLFSNSWMNWVKQRRGAGLEWIGRIFPGDGDTNYNGKFKGRVTITADKSTSTAYMELSSLRSEDTAVYFCARWGLTRDRRLYLDYWGQGTTVTVSS VL: DIVMTQSPDSLVVSLGERATINCKSSQSLLYSSNQKNYLAWYQQKSGQAPRLLIYWASTRESGVPDRFTGSGSGTDFTLTISSLQAEDVAVYYCKQYYTYPLTFGQGTKLEIKR | 3.12 nM | 0.87 ratio |
| VH3/Vκ3 Composite Human Antibody variant of HLMC (antibody, human IgG1, kappa, V domains shown, also called VH3/Vk3) VH: QAQLVQSGAEVKKPGASVKVSCKASGYLFSNSWMNWVKQRRGAGLEWIGRIFPGDGDTNYNGKFKGRATITADKSTSTAYMELSSLRSEDTAVYFCARWGLTRDRRLYLDYWGQGTTVTVSS VL: DIVMTQSPDSLAVSLGERATINCKSSQSLLYSSNQKNYLAWYQQKPGQAPRLLIYWASTRESGVPDRFSGSGSGTDFTLTISSLQAEDVAVYYCKQYYTYPLTFGQGTKLEIKR | 3.13 nM | 0.87 ratio |
| VH2/Vκ3 Composite Human Antibody variant of HLMC (antibody, human IgG1, kappa, V domains shown, also called VH2/Vk3) VH: QAQLVQSGPEVKKPGASVKVSCKASGYLFSNSWMNWVKQRPGAGLEWIGRIFPGDGDTNYNGKFKGRATITADKSTSTAYMELSSLRSEDTAVYFCARWGLTRDRRLYLDYWGQGTTVTVSS VL: DIVMTQSPDSLAVSLGERATINCKSSQSLLYSSNQKNYLAWYQQKPGQAPRLLIYWASTRESGVPDRFSGSGSGTDFTLTISSLQAEDVAVYYCKQYYTYPLTFGQGTKLEIKR | 3.7 nM | 1.03 ratio |
| VH1/Vκ3 Composite Human Antibody variant of HLMC (antibody, human IgG1, kappa, V domains shown, also called VH1/Vk3) VH: QAQLVQSGPELKKPGASVKVSCKASGYLFSNSWMNWVKQRPGAGLEWIGRIFPGDGDTNYNGKFKGRATITADKSTSTAYMELSSLRSEDSAVYFCARWGLTRDRRLYLDYWGQGTTVTVSS VL: DIVMTQSPDSLAVSLGERATINCKSSQSLLYSSNQKNYLAWYQQKPGQAPRLLIYWASTRESGVPDRFSGSGSGTDFTLTISSLQAEDVAVYYCKQYYTYPLTFGQGTKLEIKR | 4.08 nM | 1.14 ratio |
| VH2/Vκ1 Composite Human Antibody variant of HLMC (antibody, human IgG1, kappa, V domains shown, also called VH2/Vk1) VH: QAQLVQSGPEVKKPGASVKVSCKASGYLFSNSWMNWVKQRPGAGLEWIGRIFPGDGDTNYNGKFKGRATITADKSTSTAYMELSSLRSEDTAVYFCARWGLTRDRRLYLDYWGQGTTVTVSS VL: DIVMTQSPDSLVVSLGERATINCKSSQSLLYSSNQKNYLAWYQQKSGQAPRLLIYWASTRESGVPDRFTGSGSGTDFTLTISSLQAEDVAVYYCKQYYTYPLTFGQGTKLEIKR | 4.55 nM | 1.27 ratio |
